Assay [1] addresses cynomolgus PILRA, ectopically expressed on 293 cells (cynomolgus monkey). As to the kind of experiment: screening summary, TCP groups.
The target in assay [2] is T1, human PILRA, c-term His-Avi tag (human, UniProt Q9UKJ1 20-197, limits assumed).
T1 construct: not shown: C-terminal His-Avi tag
Nature of the assay: SPR (Biacore), antibody captured, PILRA as analyte. A digest of the protocol: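 Antibodies were captured at 10 μg/ml on an anti-huFc or anti-msFc CM5 surface, and human PILRA was flowed at 33, 100 and 300 nM in HBSTE/0.5% BSA, pH 7.4. The surface was regenerated with 10 mM glycine-HCl, pH 2.1, after each analyte. Curves were double-referenced with buffer injections.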
(In general: SPR reads the build-up and loss of mass on a sensor chip optically.)

Assay [3] concerns the target T2, human PILRA, G78 variant, ectopically expressed on 293 cells (human, UniProt Q9UKJ1 20-303).
T2 construct: the cells are labelled G78; also called hA G78 OE; hA
Nature of the assay: screening summary, TCP groups.

Assay [4] deals with T3, PILRA Fc (soluble human PILRA) (human, UniProt Q9UKJ1 20-197, limits assumed).
T3 construct: also called soluble PILRA; not shown: Fc part, detected with anti-human IgG
As to the kind of experiment: flow cytometry blocking assay, graph 'V1 Blocking_CD3+T Donor 906': antibody mixed with PILRA-Fc, then human CD3+ T cells; bound PILRA-Fc detected with AF647 2nd Ab; blocked partner: PILRA ligand on the T cells. The protocol: The ability of conditioned media samples containing antibodies to inhibit the binding of PILRA Fc to human CD3+ T cells was assessed. Briefly, conditioned media samples containing antibodies were incubated with 1.25 ug/ml PILRA Fc for 30 min at 4° C. and then added to human T cells. After 30 minutes incubation at 4° C., cells were washed, and bound PILRA Fc was detected with anti-human IgG Alexa 647. Cells were analyzed by flow cytometry on FACS Canto II, and for all cell lines, the amount of PILRA Fc binding (MIFI) and the percentage of PILRA Fc binding in the presence of conditioned media relative to PILRA Fc binding alone was calculated. Several antibodies inhibited binding of PILRA Fc to human T cells, and a few antibodies enhanced PILRA-Fc binding to T cells. Antibodies that show enhancement in this assay may block cis inhibition to promote trans interactions or may allosterically activate to enhance trans interactions without blocking cis.
A general note: Flow cytometry measures light scatter and fluorescence of single cells or particles in a stream.

cynomolgus PILRA, ectopically expressed on 293 cells (cynomolgus monkey), sequence (chain, as listed by the source): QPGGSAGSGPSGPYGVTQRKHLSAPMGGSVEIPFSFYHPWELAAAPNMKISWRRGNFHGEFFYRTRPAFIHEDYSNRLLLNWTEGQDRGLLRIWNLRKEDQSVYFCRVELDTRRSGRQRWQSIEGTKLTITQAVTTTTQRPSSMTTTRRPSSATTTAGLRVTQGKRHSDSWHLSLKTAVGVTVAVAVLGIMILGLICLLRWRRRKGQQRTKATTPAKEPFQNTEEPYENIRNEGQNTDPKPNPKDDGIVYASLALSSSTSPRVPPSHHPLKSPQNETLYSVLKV
T1 sequence (Q9UKJ1 20-197 limits assumed): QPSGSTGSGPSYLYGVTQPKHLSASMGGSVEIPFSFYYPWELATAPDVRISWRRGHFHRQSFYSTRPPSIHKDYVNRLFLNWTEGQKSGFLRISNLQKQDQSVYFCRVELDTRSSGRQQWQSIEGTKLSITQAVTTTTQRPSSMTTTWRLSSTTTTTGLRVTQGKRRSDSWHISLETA
T2 sequence (Q9UKJ1 other isoform, or with tags, fused parts or gaps mutant): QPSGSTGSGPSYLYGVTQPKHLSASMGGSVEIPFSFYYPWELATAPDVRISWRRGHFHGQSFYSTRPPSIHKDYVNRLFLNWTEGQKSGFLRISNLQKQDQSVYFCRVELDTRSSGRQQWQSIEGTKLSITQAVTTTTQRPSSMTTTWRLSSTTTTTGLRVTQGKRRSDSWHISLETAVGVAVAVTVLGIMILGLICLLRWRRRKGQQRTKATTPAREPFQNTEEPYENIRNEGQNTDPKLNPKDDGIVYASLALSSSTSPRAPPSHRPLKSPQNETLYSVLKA
T3 sequence (Q9UKJ1 20-197 limits assumed): as the sequence (Q9UKJ1 20-197 limits assumed) above

B1: C3 (antibody, V domains shown)
VH: EVHLQQSGPELVKPGASVKISCKASGYTFTDYYLNWVKLSLGKSLEWIGDINPNDGDTSYNQTFKGKATLTVDKSSSTAYMELRSLTSEDSAVYYCARRASSYYSNYGWYFDVWGTGTTVTVSS
VL: DILLTQSPAILSVSPGERVSFSCRASQSIGTSIHWYQQRTNGSPRLLIKFASESISGIPSRFSGSGSGTDFTLSINTVESEDIGDYYCQESNSWPTTFGAGTKLELK
notes: first hybridoma campaign
Usually Kd stands for the free concentration of one partner at which half of the binding sites on the other are occupied at equilibrium, for simple one-to-one binding. A lower Kd goes with a tighter complex. A word on the koff: it is the first-order rate constant of dissociation. A word on the kon: it is a measure of how fast the partners come together. A higher kon goes with faster complex formation. A word on the t½: it is the time needed for the level to fall by half in the phase considered. A higher t½ goes with slow decline. Take B1: the binding result in assay [1] is on record as “binds”. In assay [2], this molecule came in with a dissociation constant (Kd) of 8.3 nM, a koff of 0.0042 s⁻¹, a kon of 510000 M⁻¹ s⁻¹ and a t½ of 2.7 min.

B2: D9 (antibody, V domains shown)
VH: QVQLKESGPGLVAPSQSLSITCSVSGFSLSSYAINWVREPPGKGLEWLGVIWTGGGTNYNSALKSRLSISKDNSKSQVFLKMNSLQTDDTARYYCARNSIYYDYDGFAYWGQGTLVTVSA
VL: DIQMTQSSSYLSVSLGGRVTITCKASDHINNWLAWYQQKPGNAPRLLISGATSLETGVPSRFSGSGSGKDYTLSITSLQTEDFTTYYCQQYWSTPYTFGGGTKLEIK
notes: second hybridoma campaign
Turning to B2, in assay [3], the binding result was “binds”.

B3: B3 (antibody, V domains shown)
VH: EVKLVESGGGLVKPGGSLKLSCTASGFTFSNYAMSWVRQTPEKRLEWVASISGGGSTYYPDSVKGRFTIAIDYARNILYLQMSSLRSEDTAIYFCTRGVSYGDYAMDYWGQGTSVTVSS
VL: ETTVTQSPASLSMAIGEKVTIRCVTSTDIDDDMNWYQQKPGGPPKLLISEGNTLRPGVPSRFSSSGYGSDFVFTIEDMLSEDVADYYCLQSDNLPLTFGAGTKVELK
notes: B-cell cloning campaign (mice)
As for B3, the binding result in assay [1] is “binds”; in assay [2], “no binding (tested: 33, 100, and 300 nM)”.

B4: B4 (antibody, V domains shown)
VH: EVKLVESGGGLVKPGGSLKLSCTASGFTFSNYAMSWVRQTPEKRLEWVASISGGGSTYYPDSVKGRFTIAIDYARNILYLQMSSLRSEDTAIYYCTRGVSYGDYAMDYWGQGTSVTVSS
VL: ETTVTQSPASLSMAIGEKVTIRCVTSTDIDDDMNWYQQKPGGPPKLLISEGNTLRPGVPSRFSSSGYGSDFVFTIEDMLSEDVADYYCLQSDNLPLTFGAGTKVELK
notes: as for B3
With B4, in assay [1], the binding result was “binds”. For the same molecule, in assay [2], the Kd came out at 88.3 nM, the koff was determined as 0.00054 s⁻¹, the kon was found to be 6100 M⁻¹ s⁻¹ and the t½ came out at 21.4 min.

B5: hPA-004 (antibody, V domains shown)
VH: QVTLKESGPGMLQPSQTLSLACSFSGFSLNSFGVAVGWIRQPSGKGLEWLAHIWWDDDKSYNPALKSRLTISKDTSKNQVFLKLANVDTADTATYYCTRIADYGNHFDYWGQGTALTVSS
VL: DIQMNQSPSSLSASLGDTITITCHASQNSHVWLSWYQQKPGNIPKLLIYKASNLHTGVPSRFSGSGSGTGFTLTISGLQPEDIATYYCQQGQTYPFTFGSGTKLEIK
As to B5, in assay [4], the “IC50 (read off the curve)” value is ~3 µg/mL. In assay [2], this molecule had a Kd of 9 nM, a koff of 0.0011 s⁻¹, a kon of 130000 M⁻¹ s⁻¹ and a t½ of 10.1 min.

Source of the values: patent US20240425587A1 (Alector, published 2024).
